Source: US20160367664A1 (AGENCY FOR SCIENCE TECHNOLOGY AND RESEARCH, published 2016)

Key:
[1] = target: T1, recombinant human interleukin 2 receptor β (IL-2Rβ; CD122) (human, UniProt P14784 27-240); experiment: SPR, recombinant receptor chain immobilised on the chip, antibody flowed over
T1 construct: Recombinant chain immobilised on the SPR chip and used as antigen in the ELISAs; also called human IL-2Rβ
T1 sequence (looked up): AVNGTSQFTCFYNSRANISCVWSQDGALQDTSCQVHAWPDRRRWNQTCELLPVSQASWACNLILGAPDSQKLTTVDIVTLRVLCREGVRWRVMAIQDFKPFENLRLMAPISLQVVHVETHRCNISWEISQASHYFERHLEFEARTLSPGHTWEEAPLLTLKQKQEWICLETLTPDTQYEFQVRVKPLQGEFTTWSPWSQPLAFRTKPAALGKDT

[2] = target: T2, recombinant human common γ chain (γc; CD132) (human, UniProt P31785 23-262); experiment: as above
T2 construct: Recombinant chain immobilised on the SPR chip and used as antigen in the ELISAs; also called IL-2Rγc; IL-2Rγ
T2 sequence (looked up): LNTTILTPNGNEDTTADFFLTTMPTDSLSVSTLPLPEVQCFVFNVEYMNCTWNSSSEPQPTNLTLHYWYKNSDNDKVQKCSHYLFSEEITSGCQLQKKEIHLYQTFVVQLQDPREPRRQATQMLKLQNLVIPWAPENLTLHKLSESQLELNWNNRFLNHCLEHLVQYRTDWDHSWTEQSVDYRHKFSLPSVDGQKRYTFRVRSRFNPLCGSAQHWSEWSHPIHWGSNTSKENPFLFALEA

Kd [1]: 181 nM
Kd [2]: 78.7 nM
B1: bispecific anti-IL-2Rβ/γc antibody P2D12/P1A3 (bispecific antibody)
chain 1: HVQLVETGGGLVQPGGSLRLSCAASGFTFSSYAMSWVRQAPGKGLEWVSAISGSGGSTYYADSVKGRFTISRDNSKNTLYLQMNSLRAEDTAVYYCARDLGDYWGQGTLVTVSSGGGGSGGGGSGGGGSDIQLTQSPSSLSASVGDRVTITCQASQDIGNYLNWYQLKPGKAPKLLIYDASNLETGVPSRFSGSGSGTDFTFTISSLQPEDIATYYCLQLYDYPLTFGGGTKVEIK
chain 2: not shown
